Laboratory results published in paper PMC9187739, “MIF homolog d-dopachrome tautomerase (D-DT/MIF-2) does not inhibit accumulation and toxicity of misfolded SOD1” (Scientific Reports, 2022).

Biological target: T1, human SOD1^G93A (Zn/Cu superoxide dismutase, glycine to alanine at position 93) (human, UniProt P00441 1-154, G93A)
T1 construct: Zn/Cu superoxide dismutase (SOD1), human, with the ALS-linked mutation G93A; The introduction calls SOD1 a 32 kDa homodimer; also called mutant SOD1^G93A; mutant SOD1; source: E. coli BL-21, grown without Zn2+ and Cu2+ supplements, purified to homogeneity under non-denaturing conditions
Experiment: co-IP; purified SOD1^G93A (2 µg) incubated with recombinant D-DT (0.2, 0.5, 1, 2, 5 and 10 µg); immunoprecipitation overnight at 4 °C with B8H10 antibody (misfolded SOD1) crosslinked to protein G Dynabeads; IP buffer 0.05 M Tris pH 7.4, 0.4 M NaCl, 0.5% Nonidet P-40; bound and unbound fractions immunoblotted for SOD1 and D-DT
Conditions: both partners purified

T1 sequence (P00441 whole entry G94A): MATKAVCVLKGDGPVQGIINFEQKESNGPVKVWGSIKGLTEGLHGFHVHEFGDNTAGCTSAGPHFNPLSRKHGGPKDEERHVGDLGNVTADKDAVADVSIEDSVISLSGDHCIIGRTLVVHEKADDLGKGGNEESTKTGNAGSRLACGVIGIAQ

binding result: binds
B1: recombinant human D-dopachrome tautomerase (D-DT/MIF-2) (enzyme)
chain: PFLELDTNLPANRVPAGLEKRLCAAAASILGKPADRVNVTVRPGLAMALSGSTEPCAQLSISSIGVVGTAEDNRSHSAHFFEFLTKELALGQDRILIRFFPLESWQIGKIGTVMTFL
notes: D-dopachrome tautomerase (D-DT, MIF-2), human; also called recombinant D-DT; source: recombinant
